The supplement of paper PMC10126150
± gives the standard deviation of the averaged measurements.

These sequences were tested on ATP (assay: switch fluorescence ratio, 500 uM ATP over buffer (Cy3 cluster intensity, sum of 5 cycles each) (fold (ratio)); higher = stronger signal-on switching upon ATP binding; sequences stand for … in TCGTCGGCAGCGTCAGATGTGTATAAGAGACAGTTTTTTTTTTTTTTTTTTTTTTTTT…TC). Conditions: aptamer strand: ATP DNA aptamer (quencher-CACCTGGGGGAGTATTGCGGAGGAAGG + anchor), 100 nM annealed; ATP concentration: 500 uM.
Procedure, shortened: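 Clusters with intensities outside 100-1000 RFU were excluded. The remaining Cy3-labelled switching-strand clusters on a modified Illumina MiSeq flow-cell had been annealed to 100 nM quencher-labelled ATP aptamer and imaged in selection buffer, then after 15 min with 500 uM ATP at 22 °C, for five cycles separated by NaOH stripping and re-annealing. The fluorescence ratio, averaged per switch-domain sequence, is each cluster's summed target-cycle Cy3 intensity over its summed buffer-cycle Cy3 intensity.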
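Note: ATP exposure 15 min at 22 °C before imaging.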

Sequence | switch fluorescence ratio
GAAGGTAGGG | 0.99 ± 0.051
CCATTTGACC | 1.04 ± 0.014
CGGGGTACTT | 1.06 ± 0.056
TTATCTTGTC | 1.03 ± 0.072
TATTTTCAGA | 1.04 ± 0.014
TTCATGTGTG | 1 ± 0.081
GCACCCCGCC | 1.33 ± 0.036
TTGGAAATTG | 1.01 ± 0.019
ATATGGGGGA | 0.99 ± 0.038
ACATTCTTTA | 0.9628 ± 0.0042
AGTATGTAGC | 0.997 ± 0.032
CCATGCAGGC | 1.28 ± 0.13
CGCCTTGGTT | 1.02 ± 0.013
ATGTTGGTAC | 1.04 ± 0.02
ACGAGTTAGG | 1.044 ± 0.0014
TTTTGCTCGG | 0.998 ± 0.025
GGAGCGATGG | 3.31 ± 1.2
GATTTTTCAT | 1 ± 0.034
GATGTTGGGA | 0.989 ± 0.016
GGGGGGTATA | 1 ± 0.048
TTCTAATTAT | 0.981 ± 0.019
TCAAAGTCGA | 0.976 ± 0.045
TTGAACACGG | 1.02 ± 0.034

Sequence | switch fluorescence ratio
TATTTGGGGT | 0.999 ± 0.027
AAGATTTTGA | 0.936 ± 0.063
GTTGACTCAT | 0.97827 ± 0.00051
GGGGTAGGGG | 1.01 ± 0.026
GTGACAAAAA | 1.027 ± 0.0026
TTTGGCCAGC | 0.975 ± 0.051
GCGGGGCGTA | 0.995 ± 0.016
AGAAGGATGG | 0.983 ± 0.026
TTGGTGGAAG | 1.02 ± 0.0057
TTAGGGGGAG | 1.03 ± 0.065
CGTAAACGCT | 1.04 ± 0.024
CTTGCCTGGG | 0.96 ± 0.028
TGTTTTGTAT | 1.07 ± 0.052
TATGGCAACC | 1.03 ± 0.061
AGGTTTGTGA | 0.995 ± 0.029
CTGATGGGCT | 0.972 ± 0.029
TAAGTGCGGG | 0.974 ± 0.0034
GGGGATGGGG | 1.02 ± 0.044
ACAGCGGATG | 1.028 ± 0.0095
AGAGGTCTAC | 0.982 ± 0.031
AGGGGGACGG | 0.987 ± 0.023
GAGTAGAAAG | 0.9989 ± 0.0061
TTTTTTTATC | 1.01 ± 0.027

Sequence | switch fluorescence ratio
AAAGGTCGAC | 0.973 ± 0.021
TTGGATGGGG | 0.972 ± 0.017
AGGTTGGAGT | 1.02 ± 0.04
AGTATATAC | 1.02 ± 0.029
AGACGAGTCT | 0.974 ± 0.03
AGGCCTTTTG | 0.956 ± 0.033
GGCGGAGGGA | 0.99 ± 0.011
TTTATTTCCT | 1.07 ± 0.04
GCGGGGGTTC | 1.04 ± 0.05
ATAAGTTCTT | 0.995 ± 0.033
AGTATTCAAA | 1 ± 0.018
CAGGTTTAGG | 1.01 ± 0.021
CAAATAATGA | 0.9642 ± 0.0036
GAAGGAAAGT | 0.9689 ± 0.0057
GAGAGGAGAG | 0.998 ± 0.035
CGATAGGTGG | 0.975 ± 0.094
GTTAGTGGTT | 1.02 ± 0.015
TTTTTATGTT | 0.99 ± 0.032
CTGGGGGCGA | 1.04 ± 0.012
AATGCAGAGT | 0.983 ± 0.012
AATAATTACA | 0.9987 ± 0.0094
GGGGGCGCCA | 1.02 ± 0.02
TTAGTATGGA | 0.9837 ± 0.0013

Sequence | switch fluorescence ratio
TTCGTTTGTG | 0.971 ± 0.027
TAGGGGAGTT | 0.978 ± 0.04
GTTTTGGCG | 1.03 ± 0.032
GGGAACGAGG | 1.02 ± 0.019
ACCGCAGGGG | 1.42 ± 0.6
CAGTCGGGCT | 0.974 ± 0.02
ATTTTCGACA | 1.022 ± 0.0028
GATTTGGTAG | 1 ± 0.023
GGGAGCCGAG | 1 ± 0.03
CCACGATTAC | 3.44 ± 1.3
AGTAGGGGTG | 1.01 ± 0.032
GGCGTATTGG | 0.988 ± 0.027
ATGGGTGCTT | 1.01 ± 0.039
ATGGTTGTTT | 0.995 ± 0.02
TGTGTTAAGA | 0.9898 ± 0.0095
AAATCCTTAT | 0.996 ± 0.063
GTTTAACCCG | 1.002 ± 0.0033
ATGATTGCAC | 1.01 ± 0.057
TTTTATTGAA | 1 ± 0.03
GAAAAAAAAT | 1 ± 0.067
ACAGTTTTGG | 1.017 ± 0.0047
TGAATGGAGG | 0.988 ± 0.042
ATTCCTTTGT | 1.01 ± 0.026

Sequence | switch fluorescence ratio
TAAATGTATG | 1.01 ± 0.041
CAAGGTCGTA | 1 ± 0.029
CAATAGCTAT | 1.06 ± 0.022
TGAGATTGTT | 1.01 ± 0.028
TGTGTCAGGT | 0.997 ± 0.05
CAGTCTTTTA | 0.957 ± 0.035
TTCAGTGGGT | 0.9787 ± 0.009
TTGATGTGGG | 0.975 ± 0.029
AAAAGAAACC | 1.13 ± 0.048
ACCTGTATGG | 1.03 ± 0.044
TTGATTAAGC | 1.03 ± 0.043
TCGTTTACTT | 1.06 ± 0.13
CAGTTGCGCA | 0.996 ± 0.034
CGGGATGCCC | 1.01 ± 0.047
CAAATAGCTA | 1.0363 ± 0.00014
GGGTGGTCGG | 0.978 ± 0.032
CCGGGGGT | 1.036 ± 0.0046
AGGGTGAGAG | 0.965 ± 0.025
CCTTGGGTAT | 1.01 ± 0.034
TTAAGTTACA | 1.05 ± 0.032
TTCGTAGTGA | 1.18 ± 0.025
AGGCGGGTGC | 1.04 ± 0.095
AAATCGCATG | 1.03 ± 0.019

Sequence | switch fluorescence ratio
GTGAGTAGGT | 0.974 ± 0.014
AATGAACGGG | 0.981 ± 0.0089
TGGAAATTTG | 1.01 ± 0.036
TTTGGGAAGT | 1 ± 0.025
ATCCGTTGCT | 1.01 ± 0.048
GGCTGATTTG | 0.961 ± 0.027
CTCGGGTGCG | 0.973 ± 0.071
TTTTGGAAAT | 1.02 ± 0.027
GGTGCAGCGG | 0.982 ± 0.018
AGGTTTTTTT | 0.993 ± 0.017
GGTAAATTGA | 1.04 ± 0.03
GGCTTTTGTA | 0.972 ± 0.019
GCTAATAGTT | 1.01 ± 0.06
TATGTCAGAG | 1.01 ± 0.039
ACGGCTTTTG | 1.025 ± 0.009
GCTTGCTATG | 0.976 ± 0.014
GATCGGGAGG | 0.9844 ± 0.0089
TTGTAATTCG | 1.02 ± 0.05
AATAAATCGT | 0.998 ± 0.024
GACACCATTC | 1.13 ± 0.017
GGAGGTACAC | 1.03 ± 0.037
AATGAATTTG | 0.975 ± 0.043
AATTTGAGGG | 0.979 ± 0.016

Sequence | switch fluorescence ratio
ATATAGAGTT | 1.02 ± 0.082
AGTAGGTG | 1.05 ± 0.04
TACAGGAGGG | 1.01 ± 0.021
CTCTAGGGGG | 1.05 ± 0.028
CCGTTGAATT | 1.008 ± 0.0056
ATGGGGGTGG | 0.99 ± 0.0087
TATCGTTCTC | 0.989 ± 0.011
CTTATCGTTC | 1.02 ± 0.013
CAGAAGACAG | 0.995 ± 0.071
ATGTGGTAGC | 0.9523 ± 0.004
ACGTGATTCA | 1.03 ± 0.074
GGGTAAATGT | 0.9908 ± 0.0024
TGACTGCGGG | 1.01 ± 0.015
TTGCTCTTTT | 1.019 ± 0.0013
ATGCTTTTTT | 0.994 ± 0.017
GACGGGTGTC | 0.967 ± 0.012
CTGTAATTAT | 1 ± 0.011
TATGGGTGCC | 0.9771 ± 0.0042
TCTGACTTGA | 0.968 ± 0.018
